Measurements reported in patent US8097254.

B1: scFv L19 (high-affinity anti-ED-B human scFv antibody fragment) (scFv)
chain: EVQLLESGGGLVQPGGSLRLSCAASGFTFSSFSMSWVRQAPGKGLEWVSSISGSSGTTYYADSVKGRFTISRDNSKNTLYLQMNSLRAEDTAVYYCAKPFPYFDYWGQGTLVTVSSGDGSSGGSGGASTGEIVLTQSPGTLSLSPGERATLSCRASQSVSSSYLAWYQQKPGQAPRLLIYYASSRATGIPDRFSGSGSGTDFTLTISRLEPEDFAVYYCQQTGRIPPTFGQGTKVEIKDDDSDDDYKDDDDKHHHHHH
modifications: in some assays labelled: iodine-125 (Iodogen, or via N-succinimidyl-3-(125I)-benzoate), astatine-211 via m-MeATE, Cy5-NHS, tin (IV) chlorin e6

Columns and labels:
[1] = target: hen egg lysozyme (hen) (UniProt P00698); assay: 125I-labelled (Iodogen) scFv loaded on antigen column, counting of flow-through and eluate
[2] = target: T1, recombinant ED-B domain of fibronectin (UniProt P02751 1266-1356, biotinylated (biotin disulfide N-hydroxysuccinimide ester) in ELISA and ECL competition; Cy5 at the N-terminal extremity in the band-shift analysis); assay: SPR (BIAcore), purified scFv
T1 construct: domain: ED-B; Recombinant fragment made as in Carnemolla et al. 1996; also called biotinylated ED-B; ED-B-biotin

[3] = target: T1, recombinant ED-B domain of fibronectin; assay: competition of scFv-(ED-B-biotin) complex with excess unbiotinylated ED-B, electrochemiluminescent detection (Origen)
[4] = target: T1, recombinant ED-B domain of fibronectin; assay: Kd = koff/kon, koff from ECL competition, kon from BIAcore
[5] = target: T1, recombinant ED-B domain of fibronectin; assay: SPR (BIAcore)

T1 sequence (P02751 1266-1356 limits assumed): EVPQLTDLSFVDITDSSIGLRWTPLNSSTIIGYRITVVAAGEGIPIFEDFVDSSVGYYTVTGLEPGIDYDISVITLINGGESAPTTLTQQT
Chain of hen egg lysozyme (hen) (P00698 19-147): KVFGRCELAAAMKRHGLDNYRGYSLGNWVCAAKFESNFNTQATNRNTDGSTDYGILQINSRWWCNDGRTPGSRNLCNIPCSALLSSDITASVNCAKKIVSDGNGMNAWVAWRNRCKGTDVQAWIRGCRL

| immunoreactivity [1] [%] | kon [2] [M⁻¹ s⁻¹] | koff [3] [s⁻¹] | Kd [4] [nM] | koff [5] [s⁻¹] | Molecule |
| --- | --- | --- | --- | --- | --- |
| > 80 |  |  |  |  | scFv(D1.3) |
|  | 110000 | 6e-06 | 0.054 | 9.6e-05 | B1 |
